Source: the nanobody polyreactivity screen of Harvey et al. (2022)

test: yeast display, Sf9 membrane polyspecificity reagent, FACS + sequencing; frameworks hold sequencing errors
Procedure, shortened: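 Nanobodies from a synthetic yeast display library (Saccharomyces cerevisiae BJ5465), induced 36–48 hours with galactose, were stained 1 hour at 4 °C with 10% biotinylated, detergent-solubilized Sf9 membrane reagent, enriched on streptavidin microbeads, then FACS-sorted. Anti-HA (expression) and streptavidin (reagent binding) fluorescence set low and high (top ~1%) gates. Polyreactivity labels come from the gate of origin. Genes were colony-PCR amplified, MiSeq 2 × 250 sequenced and filtered by CDR length.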

Sequence	polyreactivity (PSR sort gate)
QVQLVESGGGLVQAGGSLRLSCAASGYIVITYAMGRYRQAPGKERELVAAISRRGGRTYYADSVKGRFTISRDNAKNTVYLQMNSLKPEATAVYYCAADPATSVYGGLNYWGQGTQVTVSS	high polyreactivity
QVQLVESGGGLVQAGGSLRLSCAASGYNFARYAMGWDRQAPGKEREFVAAITWSGGTTYYADSVKGRFTISRDNAKNTVYLQMNRLKPEDTAVYYCAARGYYTEAASSKRGNYWGQGTQVTVSS	high polyreactivity
QVQLVESGGGLVQAGGSLRLSCAASGYNFAYYAMGWYRQAPGTERELVAAISWSGSSTYYADSVKGRFTISRDNAKNTVYLQMNSLKPEDTAVYYCAKGYTSYNLGKYGYCGQGTQVTVSS	low polyreactivity
QVQLVESGGGLVQAGGSLRLSCAASGYSFYYYAMVWYRQAPGKERELVAAITSGDSTYADSVKGRFTISRDNAKNTVYLQMNSLKPEDTAVYYCNRDTDYGFDYWGQGTQVTVSS	low polyreactivity
QVQLVESGGGLVQAGGSLRLSCAASGYTFASYTMGWYRQAPGKERELVATISRGGGRTYYADSVKGRFTISRDNAKNTVYLQMNSLKPEDTAVYYCARPSTFYTGYRQAHFDYWGQGTQVTVSS	high polyreactivity
QVQLVESGGGLVQAGGSLRLSCAASGYTFDANAMGWYRQAPGKERELVAAIRSGGGLTYYADSVKGRFTISRDNAKNTVYLQMNSLKPEDTAVYYCAAVTRRDSFEYWGQGTQVTVSS	low polyreactivity
QVQLVESGGGLVQAGGSLRLSCAASGYTFDAYAMGWYRQAPGKERELVAAISGDSTNYADSVKGRFTISRDNAKNTVYLQMNSLKPEDTAVYYCAAAFWYDYWEKYDYWGQGTQVTVSS	low polyreactivity
QVQLVESGGGLVQAGGSLRLSCAASGYTFDAYSMGWYRQAPGKERELVAAITTNGGSTYYADSVKGRFTISRDNAKNTVYLQMNSLKPEDTAVYYCNAEYSYEGRYPYDYWGQGTQVTVSS	low polyreactivity
QVQLVESGGGLVQAGGSLRLSCAASGYTFDDYEMGWYRQAPGKERELVAAISRGGSTYYADSVKGRFTISRDNEKNTVYFQMNSLKPEDTAVYYCGAVYRVRKITYDYWGQGTQVTVSS	high polyreactivity
QVQLVESGGGLVQAGGSLRLSCAASGYTFDGYAMGRYRQAPGKERELVAAINSGGGTYYADSVKGRFTISRDNAKNTVYLQMNSLKPEDTAVYYCAKYTYDYWGQGTQVTVSS	low polyreactivity
QVQLVESGGGLVQAGGSLRLSCAASGYTFDWYAMGWYRQAPGKERELVAAISYSTGSTYYADSVKGRFTISRDNAKNTVYLQMHSLKPEDTAVYYCATRYWRSGYDWPYGSWGQGTQVTVSS	high polyreactivity
QVQLVESGGGLVQAGGSLRLSCAASGYTFEYNAMGWYRQATGKEREFVATITASGDSTYYADSVKGRFTISRDNAKNTVYLQMNSLKPEDTAVYYCATEKRDVYFTAKYDYWGQGTQVTVSS	low polyreactivity
QVQLVESGGGLVQAGGSLRLSCAASGYTFFRNTMGWYRQAPGKERELVAVITKSGGSTYYADSVKGRFTISRDNAKNTVYLQMNSLKPEDTAVYYCNAVNALRNTEYNYWGQGTQVTVSS	high polyreactivity
QVQLVESGGGLVQAGGSLRLSCAASGYTFFRYAMGWYRQAPGKERELVAAISGGGGSTYYADSVKGRFTISRDYAKNTVYLQMNSLKPEDTAVYYCAAESQAYSLYWGQGTQVTVSS	high polyreactivity
QVQLVESGGGLVQAGGSLRLSCAASGYTFGLYTMGWYRQAPGKEREFVATIDWSEGGTHYADSVKGRFTISRDIAKISVYLQMNSLKPEYTAVYYCNADWYAYPYGYWGQGTQVTVSS	low polyreactivity
QVQLVESGGGLVQAGGSLRLSCAASGYTFGQYAMGWYRQAPGKEREMVAAISSGGGSTYYADSVKGRFTISRDNAKTTVYLQMNSLKPEDTAVYYCAAQYLYPTYRYGYWGQGTQVTVSS	high polyreactivity
QVQLVESGGGLVQAGGSLRLSCAASGYTFGSNTMGWYRQAPGKERELVAVITWSGGSTYYADSVKGRFTISRDNAKNTVYLQMNSLKPEDTAVYYCAADATSPLTWFDYWGQGTQVTVSS	low polyreactivity
QVQLVESGGGLVQAGGSLRLSCAASGYTFGSYAMGWYRQAPGKERELVAAISGGGSTNYADSVKGRFTISRDNAKNTVYLQMNSLKPEDTAVYYCAADIRWGQGTQVTVSS	low polyreactivity
QVQLVESGGGLVQAGGSLRLSCAASGYTFGTYAMGWYRQAPGKERELVAAITTNVGSTYYADSVKGRFTISRDNAKNTVYLQMNSLKPEDTAVYYCAADVGWRFGDITYWAYDYWGQGTQVTVSS	low polyreactivity
QVQLVESGGGLVQAGGSLRLSCAASGYTFGTYDMGWYRQAPGNERELGAAISLGGSTNYADSVKGPFTISRDNAKNTVYLQMYSLKPEDTAVYYCAAEVNVGTLLLSVIVEDGDYWGQGTQVTVSS	low polyreactivity
QVQLVESGGGLVQAGGSLRLSCAASGYTFGYNAMGWYRQAPGKERELVAAISWNAGSTYYADSVKGRFTISRDNAKNTVYLQMNSLKPEDTAVYYCATEGTYIYNYWGQGTQVTVSS	low polyreactivity

Sequence	polyreactivity (PSR sort gate)
QVQLVESGGGLVQAGGSLRLSCAASGYTFGYNAMGWYRQAPGKERELVANITWRGGSTNYADSVKGRFTISRDNAKNTVYLQMNSLKPEDTAVYYCAADRPWYYGRYYYWGQGTQVTVSS	high polyreactivity
QVQLVESGGGLVQAGGSLRLSCAASGYTFGYYAMGWYRQAPGKERELVAAINYSGGRTYYADSVKGRFTISRDNAKNTVYLQMNSLKPEDTAVYYCNAKYGGWSKYWFPRDMDYWGQGTQVTVSS	low polyreactivity
QVQLVESGGGLVQAGGSLRLSCAASGYTFIHNAMGWYRQAPGKERELVAAINRSGGITNYADSVKGRFTISRDNAKNTVYLQMNSLKPEDTAVYYCNADVDPLPPRYLHREVLKEYNYWGQGTQVTVSS	low polyreactivity
QVQLVESGGGLVQAGGSLRLSCAASGYTFKTNDMGWYRPAPGKEREFVAAISAIGGSTYYADSVKGRFTISRDNAKNTVYLQMNSLKPEDTAVYYCAKDKSPYGYATNQYRKYYYWGQGTQVTVSS	low polyreactivity
QVQLVESGGGLVQAGGSLRLSCAASGYTFLGYAMGWYRQAPGKERELVAAIRRSGGRPYYADSVKGRFTISRDNAKNTVYLQINRLKPEDTAVYYCAQGYVGEYDYWGQGTQVTVTS	high polyreactivity
QVQLVESGGGLVQAGGSLRLSCAASGYTFLYYAMGWYRQAPGKEREFVAAISRSGGSTYYADSVKGRFTISRDNAKNTVYLQMISLKPEDTAVYYCAARFRYQHQRGDYWGQGTQVTVSS	high polyreactivity
QVQLVESGGGLVQAGGSLRLSCAASGYTFLYYAMGWYRQAPGKEREFVAAISRSGGSTYYADSVKGRFTISRDNAKNTVYLQMNSLKPEDTAVYYCAKDHPSGRQYDYWGQGTQVTVSS	high polyreactivity
QVQLVESGGGLVQAGGSLRLSCAASGYTFPDYAMGWYRQATGKERELVAAIRSGGGTNYADSVKGRFTISRDNAKNTVYLQMNSLKPEDTAVYYCAKEWAGGLYDYWGQGTQVTVSS	low polyreactivity
QVQLVESGGGLVQAGGSLRLSCAASGYTFPFYTMGWYRQAPGKERELVAAINSGGSTYYADSVKGRFTISRDNAKNTVYLQMNSLKPEDNAVYYCAVEGGFRVRYQAQYRYYYCGQGTQVTVSS	high polyreactivity
QVQLVESGGGLVQAGGSLRLSCAASGYTFPRYAMGWYRQAPGKERELVAAITWSGGSTYYADSVKGRFTISRDNAKNTVYLQMNSLKPEDTAVYYCNTDRYHRVDFDYWGQGTQVTVSS	high polyreactivity
QVQLVESGGGLVQAGGSLRLSCAASGYTFPSNAMGWYRQAPGKERELVAAISSGGRTNYADSVKGRFTISRDNAKNTVYLQMNSLTPEDTAVYYCNADGGPGYPRAYDYWGQGTQVTGSS	low polyreactivity
QVQLVESGGGLVQAGGSLRLSCAASGYTFQTNTMGWYRQAPGKERELVAAITDGDSTNYADSVKGRFTISRDNAKNTVYLQMNSLKPEDTAVYYCAAQYYYSEAGMDYWGQGTQVTVSS	low polyreactivity
QVQLVESGGGLVQAGGSLRLSCAASGYTFRIYAMGWYRLAPGKERELVAGISSRGTSTYYADSVKGRFTISRDNAKNTVYLQMNSLKPEDTAVYYCAAGRYGRLYGYWGQGTQVTVSS	high polyreactivity
QVQLVESGGGLVQAGGSLRLSCAASGYTFRYYAMGWYRQAPGKERELVAAITGSGGSTYYADSVKGRFTISRDNAKNTVYLQMNSLKPEDTAVYYCNTVTTSYKRSGKFDYWGQGTQVTVSS	high polyreactivity
QVQLVESGGGLVQAGGSLRLSCAASGYTFRYYAMGWYRQAPGKERELVARITGRAGSTYYADSVKGRFTISRDNAKNTVYLQMNSLKPEDTAVYYCAAQPAHPRRYDYWGQGTQVTVSS	high polyreactivity
QVQLVESGGGLVQAGGSLRLSCAASGYTFSDNAMGWYRQAPGKERELVAAITSGVSTYYADSVKGRFTISRDNAKNTVYLQMNSQKPEDTAVYYCAKEVAVFADLYQGAPYGYWGQGTQVTVSS	low polyreactivity
QVQLVESGGGLVQAGGSLRLSCAASGYTFSDYAMGWYRQAPGKERELVAAISWSGGSTYYADSVKGRFTISRDNAKNTVYLQMNSLKPEDTAVYYCAAKWYAPDLLYYYWGQGTQVTVSS	low polyreactivity
QVQLVESGGGLVQAGGSLRLSCAASGYTFSHYAMGWYRQAPGTERELVAGITWSGGSTYYADSVKGRFTISRDNAKNTVYLQMNSLKPEDTSVYYCAAKYYWYYSYSGIPLFDYWGQGTQVTVSS	low polyreactivity
QVQLVESGGGLVQAGGSLRLSCAASGYTFSHYPMGWYRQAPGKERELVAGITWSGGSTYYADSVKGRFTISRDNAKNTVYLQMNSLKPEDTSVYYCAGKYYWYYSYSGIPLFDYWGQGTQVTVSS	low polyreactivity
QVQLVESGGGLVQAGGSLRLSCAASGYTFSLNAMGWYRQAPGKERELVAAISGRTGRTYYADSVKGRFTISRDNAKNTVYLQMNSLKPEDTAVYYGNKVYPYQRRTRFDYWGQGTQVTVSS	high polyreactivity
